In the nanobody polyreactivity screen of Harvey et al. (2022):

assay: yeast display, Sf9 membrane polyspecificity reagent, FACS + sequencing; frameworks hold sequencing errors
In short: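 A synthetic nanobody library was expressed on Saccharomyces cerevisiae BJ5465 by galactose induction for 36–48 hours. The library was stained for 1 hour at 4 °C with 10% biotinylated, detergent-solubilized Sf9 membrane reagent and enriched with streptavidin microbeads before FACS. Low and high (top ~1%) gates were set on anti-HA fluorescence for expression and streptavidin fluorescence for reagent binding, and each polyreactivity label reflects the gate of origin.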

Q: For “QVQLVESGGGLDQAGGSLRLSCAASGSTFRRYAMGWYRQAPGKERELVAAITGSGGRTYYADSVKGRFTISRDNAKNTVYLQMNSLKPEDTAVYYCNAVSYIDYSRARIRYEYWGQGTQVTVSS”, which “polyreactivity (PSR sort gate)” value is on record?
A: high polyreactivity

Q: For “QVQLVESGGGLDQAGGSLRLSCAASGSTFTSYDMGWYIQAPGKERELVAAITISSGGTYYADSVKGRFTISRDTAKNTVYLQMNSLKPEDTEVYYCAADIFADASYDYWGLGTQVTVSS”, which “polyreactivity (PSR sort gate)” value is on record?
A: low polyreactivity

Q: With “QVQLVESGGGLDQAGGSLRLSCAASGSTFVGYAMGWYRQAPGKERELVAAISQSDVSTYYADSVKGRFTISRDNAKNTVYLQMNSLKPEDTAVYYCAADRGGLRWFWQVLYDYWGQGTQVTVSS” as the sequence, how does the “polyreactivity (PSR sort gate)” value read?
A: low polyreactivity

Q: For “QVQLVESGGGLDQAGGSLRLSCAASGSTSAYYVMGWYRQAPGKERELVAAIDFSGDSTYYADSVKGRFTISRDNAKNTVYLQMISLKPEDSAVYYCAAELFFYSSLVTYEYWGQGTQVTVSS”, which “polyreactivity (PSR sort gate)” value is on record?
A: high polyreactivity

Q: With “QVQLVESGGGLDQAGGSLRLSCAASGSTSLSYAMGWYRQAPGKERELVAAISRGGSTTYADSVKGRFTISRDNAKNPVYFQMKSLKPVDTAVYYCAVGYDIVRYSYSPFYRYDYWGQGTQVTVSS” as the sequence, how does the “polyreactivity (PSR sort gate)” value read?
A: low polyreactivity

Q: Which “polyreactivity (PSR sort gate)” value does the source give for “QVQLVESGGGLDQAGGSLRLSCAASGSTYPGNAMGWYRQAPGKERELVAAIDSSTGSTYYADSVKGRFTISRDHAKNTVYLQMNSLKPEDNAVYYCNKTSFLVKLDYWGLGTQVTVSS” here?
A: low polyreactivity

Q: Which “polyreactivity (PSR sort gate)” value does the source give for “QVQLVESGGGLDQAGGSLRLSCAASGSTYSYYAMGWYRQAPGKERELVAAISRSGGSTYYADSVKGRFTISRDNAKNTVYLQMNCMKPEDTAVYYCAARGQYRYSFGDYSWGQGTQVTVSS” here?
A: high polyreactivity

Q: Which “polyreactivity (PSR sort gate)” value does the source give for “QVQLVESGGGLDQAGGSLRLSCAASGYTLGDYAMGWYRQAPGKERELVAVITRNGGRTYYADSVKGRFTISRDNAKNTVFLQMNSLKPEDTAVYYCNRDTSIRDYNYWGQGTQVTVSS” here?
A: high polyreactivity

Q: Which “polyreactivity (PSR sort gate)” value does the source give for “QVQLVESGGGLDQAGGSLRLSCAASGYTYLRNAMGWSRQAPGKERELVAAISYSGGGTYYADSVKGRFTISRDNAKNTVYLQMHSLKPEDTAVYYCAADRGGLRWFWQVLYDYWGQGTQVTVSS” here?
A: low polyreactivity

Q: Which “polyreactivity (PSR sort gate)” value does the source give for “QVQLVESGGGLDQAGGSLRLSCAAYGSTFTYQSMGWYRQATGKERELVAAITWSSDITYYADSVKGRFTISRDNAKSTVYLQMNSLKPEDTAVYYCAADGVTRDYVYWGQGTQVTVSS” here?
A: low polyreactivity

Q: Which “polyreactivity (PSR sort gate)” value does the source give for “QVQLVESGGGLDQAGGSLRLSCAPSGFIFIRNAMGWYRQAPGKDRELVAAISSGGRTYYADSVKGRFTISRDNAKNTVYLQMNSLKPEDTAVDYCATRPHRPRGQSVGQYDDWGQGTQVTVSS” here?
A: high polyreactivity

Q: Which “polyreactivity (PSR sort gate)” value does the source give for “QVQLVESGGGLDQAGGSLRLSCAPSGSIFGSYAMGWYRQAPGKERELVAAIRRSSASTYYADSVKGRFTISRDNAKNTVYLQMNSLKPEDTAVYYCATQSYSDYGYRYRYAAYDYWGQGTQVTVSS” here?
A: high polyreactivity

Q: With “QVQLVESGGGLDQAGGSLRLSCAPSGSIVRYAMGWYRPAPGKERELVAAISSSGGSTYYADSVKGRFTISRDNAKNTFYLQMNRLKPADTAVYYCAKRIVQASVAAYYYWGQGPQVTVSS” as the sequence, how does the “polyreactivity (PSR sort gate)” value read?
A: high polyreactivity

Q: Which “polyreactivity (PSR sort gate)” value does the source give for “QVQLVESGGGLDQAGGSLRLSCPASAITFQLYAKGWYRQAPGKERELVAAISRSGSGTYYADSVKGRFTISRDNAKNTVYLQMHSLKPEDTAVYYCAALGPGYYWGQGTQVTVSS” here?
A: high polyreactivity

Q: With “QVQLVESGGGLDQAGGSLRLSSAASGFTFVYYAMGWYRQAPGKERELVAAISWSGGTTYYADSVKGRFTISRDNAKNTVYLQMNSLKPEDTAVYYCNVYPAYIYFDYDYWGQGTQVTVSS” as the sequence, how does the “polyreactivity (PSR sort gate)” value read?
A: high polyreactivity

Q: For “QVQLVESGGGLDQAGGSLRLSSAASGSMILHNDMGWYRQAPGKEMELVATIDSAGGTYYADSVKGRFTISRDNAKNTVYLQMNSLKPEDSAVYYCAAYGPYVLSIYDYWGQGTQVTVSS”, which “polyreactivity (PSR sort gate)” value is on record?
A: low polyreactivity

Q: With “QVQLVESGGGLDQAGGSLRLTCAASGNTSEYYAMGWSRQAPGKERQLVAAIRSDVRTYYADSVKGRFTISRDNAKNTVYLQMNSLKPEDTAVYYCNADKSAWDYYLQTFNYWGQGTQVTVSS” as the sequence, how does the “polyreactivity (PSR sort gate)” value read?
A: high polyreactivity

Q: For “QVQLVESGGGLDQAGGSLRLTCAASGSIFRWYAMGWYRQAPGKERELVAAISRGASTNYADSVKGRFTISRDNAKNTVYLKMNSLKPEDTAVYFCAKRTTRLATYDYWGQGTQVTVSS”, which “polyreactivity (PSR sort gate)” value is on record?
A: high polyreactivity

Q: Which “polyreactivity (PSR sort gate)” value does the source give for “QVQLVESGGGLDQAGGSLRLTCAASGSTFQFYAMGWYRQAPGKERYLVAAISGAGGSTYYADSVKGRFTISRDNAKNTVYLQMNILKPEDTAVYYCNKVRRKQSVLTFDYWGQGTQVTVSS” here?
A: high polyreactivity

Q: With “QVQLVESGGGLDQAGGSLRLTCAASRFNFNGYAMGSYSQAPRKERELVAGITSGGRTNYADSVKGRFTISRDNAKNTVYLQMNSLKPEDTAVYYCNRYKVSGYDYWGQGTQVTVSS” as the sequence, how does the “polyreactivity (PSR sort gate)” value read?
A: high polyreactivity

Q: For “QVQLVESGGGLDQAGGSLRLTSAASGSTFYRNAMGWYRQAPGKERELVAAITIRGGSTSFADSVKGRFTISRDNAKNTVYLQMNSLKPEDTAVYYCNADPRAEPGDWSYEMDYWGQGTQVTVSS”, which “polyreactivity (PSR sort gate)” value is on record?
A: low polyreactivity

Q: Which “polyreactivity (PSR sort gate)” value does the source give for “QVQLVESGGGLDQAGGSLRLTWAASGSIIGRNFMGLYRQAPGKEREFLAAIRSSGATTYYADSVKGRFTISRDNAKYTVFLQMTSLKPEDTAVYYCNARPPYYTVQTGGYDYWGQGTQVTVSS” here?
A: low polyreactivity

Q: For “QVQLVESGGGLDQAGGSLRVSCAASGSILRYTMGWYRQAPGKERELVAAITRSGTSTYYADSVKGRFTISRDNAKNTVYLQMNSLKPEDTAVYYCAADDHYGRGFQYYYWGQGTQVTVSS”, which “polyreactivity (PSR sort gate)” value is on record?
A: high polyreactivity

Q: For “QVQLVESGGGLDQAGGSLRVSCAASGSTFHRNAMGWYRQAPGKERELVAAITSGGSTNYADSVKGRFTISRDNAKNTVYLQMNSLNPEDTAVYYCAKDYLHYNRGWYDYWGQGTQVTVSW”, which “polyreactivity (PSR sort gate)” value is on record?
A: low polyreactivity

Q: Which “polyreactivity (PSR sort gate)” value does the source give for “QVQLVESGGGLDQAGGSRRLSCAASGITFGRNTMGWYRQSPGKERELVASISYSGTTTYYADSVKGRFTISPDNAKNTVYLQMNSLKPEDTAVYYCNKRWRYYDMDYWGQGTQVTVSS” here?
A: low polyreactivity

Q: With “QVQLVESGGGLDQAGGSVRLSCAASGSTFDNYAMGWYRQAPGKEREWVAVISRSGTSTYYADSVKGRFTISRDNAKNTVYLQMNSLKPEDTAVYYCASAPSQVYRARFYYWGQGTQVTVSS” as the sequence, how does the “polyreactivity (PSR sort gate)” value read?
A: high polyreactivity

Q: For “QVQLVESGGGLDQARGSLRLSCAASGFTFKFYAMGWYRQSPGKEREFVAAISGSGDSTYADSVKGRFTISRDNAKNTVYLQMNSLKPEDTAVYYCNARYAGVPWWGYYSSEVNYWGQGTQVTVSS”, which “polyreactivity (PSR sort gate)” value is on record?
A: low polyreactivity

Q: With “QVQLVESGGGLDQARGSLRLSCAASGLTFVEYAMGWYRQAPGKESELVADITISGGRTYYADSVKGRFTISRDNAKYTVYLQMNSLKPEDTAVYYCNAQSYLGVTHRGYIKNGYDYWGQGTQVTVSS” as the sequence, how does the “polyreactivity (PSR sort gate)” value read?
A: low polyreactivity

Q: Which “polyreactivity (PSR sort gate)” value does the source give for “QVQLVESGGGLDQARGSLRLSCAASGRIFYTYAMGWYRRAPGKERELVAAISRSGTSTYYADSVKGRFTISRDNAKNTVYLQMNSLKPEDTAVYYCAAAKWYSVAYVGTFKYDYWGQGTQVTVSS” here?
A: high polyreactivity

Q: Which “polyreactivity (PSR sort gate)” value does the source give for “QVQLVESGGGLDQARGSLRLSCAASGSTFYYYAMGWYRQAPGKERELVAAITSRGGRTYYADSVKGRFTISRDNAKNTVYLQMNSLKPEDTAVYYCNARTIYYGFDYWGQGTQVTVSS” here?
A: low polyreactivity

Q: Which “polyreactivity (PSR sort gate)” value does the source give for “QVQLVESGGGLDQEGGSLRLSCAASGSIFFWNDMGWYRQAPGKERELVAAISWSGGSTSYADSVKGRFTISRDNAKNTVYLQMNSLKPEDTAVYYCAAEYTYGSPYDYWGQGTQVTVSS” here?
A: low polyreactivity

Q: Which “polyreactivity (PSR sort gate)” value does the source give for “QVQLVESGGGLEQAGGRLRLSCAASGSTFGGYAMGWFRQSPGTERQLVAAISGSGVRTYYADSVKGRFTISRDTAKNTVYLEMNSLNQEDTEVFYCAKRVRYPGDLYYYWGQGTQVTVSW” here?
A: high polyreactivity

Q: With “QVQLVESGGGLEQAGGRLRLSCADSRRIFGRYAMGWYRQAPGKERELVAAINQSGSTTYYADSVKGRFTISRDNAKNTVYLQMNSLKPEDTAVYYCAADGNGVDYDYWGQGTQVTVSS” as the sequence, how does the “polyreactivity (PSR sort gate)” value read?
A: low polyreactivity

Q: With “QVQLVESGGGLFHAGGSLRLSCAAYGSTFPYYTMGWYRQAPGKERELVAAITTRGGGTYYADSVKGRFTISRDNAKNTVYIQMKSLKPEDTAVYYCAAKTIYYTRGIRHYYWGQVTQVTVSS” as the sequence, how does the “polyreactivity (PSR sort gate)” value read?
A: high polyreactivity

Q: Which “polyreactivity (PSR sort gate)” value does the source give for “QVQLVESGGGLFQAGGRLRLSCAASGSIFPPYAMGWYRQAPGKERELVAAINWSGGRTYYADSVKGRFTISRDHPKNTLYLHMNSLKPEDTEDYYGAADLRRYSGEYYYWGQRTQVTVSS” here?
A: high polyreactivity

Q: Which “polyreactivity (PSR sort gate)” value does the source give for “QVQLVESGGGLFQAGGRLRLSCAASGYTFYLNAMGWYRQAPGKEREFVAVIDDSGDSTDYADSVKGRFTISRDNAKNTVYLQMHSLKPEDTAVYYCAANEGGTGDDYWGQGTQVTVSS” here?
A: low polyreactivity

Q: Which “polyreactivity (PSR sort gate)” value does the source give for “QVQLVESGGGLFQAGGSLRISFAASGRIFGVNAMGWYRQAPGTQSELVAAISAGGGNTYYADSVKGRFTISRDNAKNTVYLQMNRLKPEDTAVYFCNVQRSLRMDFWGQGTQVTVSS” here?
A: high polyreactivity

Q: With “QVQLVESGGGLFQAGGSLRISSAPSGRTYYRNAMGWYRQAPGIERELVAAISWSGGRTYYADSVKGRFTISRDNAKNTVYLQMNSLKPEDSAVYYCAALFIYRSYAALSRYDYWGQGTQVTVSS” as the sequence, how does the “polyreactivity (PSR sort gate)” value read?
A: high polyreactivity

Q: With “QVQLVESGGGLFQAGGSLRLSCAASGFIFGLYAMGWYRQAPGKEREFVAAISTSSGITYYADSVKGRFTISRDNAKNTVYLQMNSLKPEDTAVYDCAARGHYYDYWRQGTQVTVSS” as the sequence, how does the “polyreactivity (PSR sort gate)” value read?
A: low polyreactivity

Q: Which “polyreactivity (PSR sort gate)” value does the source give for “QVQLVESGGGLFQAGGSLRLSCAASGFIFYYNTMGWYRQAPGKERELVAAISSGGRTYYADSVKGRFTISRDNAKNTVYLQMNSLKPEDTAVYYCNVVTYVKYGCWGQGTQVTVSS” here?
A: high polyreactivity

Q: For “QVQLVESGGGLFQAGGSLRLSCAASGFTFPHYMGWYRQAPGKERELVAAINVSGGSTSYADSVKGRFSISRDNAKNTVYLQMNSLKPEDTGVYFCAKDLRFRLFSYPSDYWGQGTQVTVSS”, which “polyreactivity (PSR sort gate)” value is on record?
A: low polyreactivity

Q: With “QVQLVESGGGLFQAGGSLRLSCAASGFTFVDYAMAWYRQAPGKERELVAAITVSGDSTYYADSVKGRFTISRDNAKNTVYLQMNSLKRADTAFYYCAADPGYYYGGYWGQGTQVTVST” as the sequence, how does the “polyreactivity (PSR sort gate)” value read?
A: low polyreactivity

Q: For “QVQLVESGGGLFQAGGSLRLSCAASGFTPGNVRGCYRQAPGKERELVAAISWSADSTYYADSVKGRFTISRDNAKNTVNLQMKSLKREDSAVYYCSADGVPGRAVDYEYWRQGTQVTVSS”, which “polyreactivity (PSR sort gate)” value is on record?
A: high polyreactivity
